{"source": "paper PMC6770826", "about": "“HDX and Native Mass Spectrometry Reveals the Different Structural Basis for Interaction of the Staphylococcal Pathogenicity Island Repressor Stl with Dimeric and Trimeric Phage dUTPases” (Biomolecules, 2019)", "molecules": {"B1": {"name": "φNM1 phage dUTPase (enzyme)", "chain": "TNTLTIDQLQELLQIQKEFDDRIPTLNLRDSKIAYVVEFFEWFNTLETFKNWKKKPGKPLDVQLDELADMLAFGLSIANQVGVSSEEIKEAIESSFKDTEFHKMFNFKDKEFAQDAVVSTPQIIFKEFYPDQQAIVIVIDIAYNLYSIDQLIDAYKKKMKRNHERQDGTADAGKGYV", "notes": "dUTPase of Staphylococcus aureus phage φNM1, Uniprot ID A0EWK2, residues 2-178; monomer mass 20976 Da printed; also called DUTφNM1; homodimeric φNM1 dUTPase; source: E. coli BL21 Rosetta (DE3), purified (glutathione-agarose, on-column thrombin cleavage); not shown: GST, N-terminal, cleaved"}}, "key": {"[1]": {"molecular_target": "φNM1 phage dUTPase (Staphylococcus aureus phage φNM1) (UniProt A0EWK2)", "assay": "enzyme inhibition (steady-state dUTPase activity); DUTφNM1 with Stl at 0-300 nM, pre-incubated 5 min; 293 K; 1 mM HEPES-HCl pH 7.5, 5 mM MgCl2, 150 mM KCl, phenol red; quadratic binding equation fitted; apparent"}, "[2]": {"molecular_target": "φNM1 phage dUTPase (Staphylococcus aureus phage φNM1) (UniProt A0EWK2)", "assay": "native MS; electrospray QTOF, positive ion mode; proteins at 40 μM in 5 mM NH4HCO3 pH 8.0"}, "[3]": {"molecular_target": "φNM1 phage dUTPase (Staphylococcus aureus phage φNM1) (UniProt A0EWK2)"}, "[4]": {"molecular_target": "Stl repressor protein of S. aureus pathogenicity island SaPIbov1 (Staphylococcus aureus (pathogenicity island SaPIbov1))", "assay": "cross-linking; disuccinimidyl suberate (DSS, 20 mM), 20 °C, 1 h; 20 μM each protein alone or 1:1 mixture (40 μM total); SDS-PAGE"}, "[5]": {"molecular_target": "φNM1 phage dUTPase (Staphylococcus aureus phage φNM1) (UniProt A0EWK2)", "assay": "cross-linking; disuccinimidyl suberate (DSS, 20 mM), 20 °C, 1 h; 20 μM each protein alone or 1:1 mixture (40 μM total); SDS-PAGE"}, "[6]": {"molecular_target": "the molecule itself", "assay": "cross-linking; disuccinimidyl suberate (DSS, 20 mM), 20 °C, 1 h; 20 μM each protein alone or 1:1 mixture (40 μM total); SDS-PAGE"}}, "data": [{"molecule": "Stl repressor protein of S. aureus pathogenicity island SaPIbov1 (natural protein)", "values": [{"measurement": "Ki", "setting": "[1]", "result": 34, "unit": "nM"}, {"measurement": "stoichiometry N (Stl per DUTφNM1)", "setting": "[2]", "result": 1}, {"measurement": "maximal inhibition of the steady-state dUTPase activity of DUTφNM1 by Stl (0-300 nM)", "setting": "[3]", "result": 40, "unit": "%"}, {"measurement": "stoichiometry N", "setting": "[4]", "result": 2}, {"measurement": "stoichiometry N (Stl per DUTφNM1)", "setting": "[5]", "result": 1}]}, {"molecule": "B1", "values": [{"measurement": "stoichiometry N", "setting": "[6]", "result": 2}]}]}
